# Test results reported in US20090202619A1, “POLYOXYALKYLENE CHAIN-CONTAINING LIPID DERIVATIVE AND LIPID FILM STRUCTURE CONTAINING SUCH DERIVATIVE” (THE UNIVERSITY OF TOKUSHIMA, priority 2005, published 2009).
# Set-up: species or system male ddY mouse
# Settings: mouse, in vivo, iv
# Text: Using the methylpolyoxyethylenecarbamyl-glycyl-glycyl-glycyl-distearoylphosphadylethanolamine (DSPE-GGG-PEG2000) obtained in Example 5 or the methylpolyoxyethylenecarbamyl-distearoylphosphadylethanolamine (DSPE-PEG2000), egg yolk phosphatidylcholine (EPC) or hydrogenated egg yolk phosphatidylcholine (HEPC), and cholesterol, a composition in the blending ratios shown in Table 2 below was weighed in an egg plant flask, and the liposome solutions of Example 9 and Comparative Examples 4 to 5 were obtained by the same method as (1) above but using doxorubicin in place of the fluorescent dye. To monitor the blood kinetics of the liposome per se, 40 μCi/μmol ^3H-cholesterylhexadecyl ether (^3H-CHE) was added. […]
# Next, each liposome was administered to a male ddY mouse from the tail vein (25 mg lipid/kg), blood was collected 2 minutes, 30 minutes, 1 hour, 2 hours, 4 hours, 8 hours, and 24 hours after the administration, the radioactivity in blood was measured to determine the concentration of the liposome per se, and doxorubicin was measured by the fluorescence method to determine the doxorubicin concentration at that time point. Because the doxorubicin that has leaked from the liposome is quickly distributed in various tissues, doxorubicin concentrations determined by this method are considered to reflect the amount of doxorubicin retained in the liposome.
substance,measurement,value
methylpolyoxyethylenecarbamyl-glycyl-glycyl-glycyl-distearoylphosphadylethanolamine [Example 4],cleavage of the lipid derivative in blood,minimally cleaved in blood
same,influence on the drug-releasing characteristics of liposome,did not influence the drug-releasing characteristics of liposome
